Data on 34 variants can be found in the RNAGym collection of RNA variant scans (doi:10.1093/nar/gkz1192).

The chains are these.
B1: CPEB3 Ribozyme (parent)
chain: UAACAGGGGGCCACAGCAGAAGCGUUCACGUCGCAGCCCCUGUCAGAUUCUGGUGAAUCUGCGAAUUCUGCUGUAUAUCUC

The variants in this data set derive from B1. In words: self-cleavage, relative activity (ratio to wild type); higher = more cleavage; in vitro, sequencing. The procedure, abridged:
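For each CPEB3 ribozyme variant, relative activity is its cleaved/total read fraction divided by the unmutated ribozyme's. Barcoded error-prone PCR libraries were transcribed by T7 RNA polymerase (5 hours, 37°C) and held in DNase I for 15 min before an EDTA stop, with cleavage occurring throughout. Template-switching reverse transcription and Illumina sequencing were used to read the RNAs. A 5-read minimum applied, and results are the mean of three batches.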
As to UAACAGGGGGCCACAGCAGAAGCGUCCACGUCGCAGCCCCUGUCAGAUUCUGGUGAAUCUGCGAAUUCUGAUGUAUAUCUC [U26C C71A], the self-cleavage was determined as 0.1.
Then UAACAGGGGGCCACAGCAGAAGCGUCCACGUCGCAGCCCCUGUCAGAUUCUGGUGAAUCUGCGAAUUCUGUUGUAUAUCUC [U26C C71U], with 0.24; and UAACAGGGGGCCACAGCAGAAGCGUCCACGUCGCAGCCCCUGUCAGAUUCUGGUGAAUCUGCGAAUUCUGCUGUAUAUAUC [U26C C79A], with 0.61.
As to UAACAGGGGGCCACAGCAGAAGCGUCCACGUCGCAGCCCCUGUCAGAUUCUGGUGAAUCUGCGAAUUCUGCUGUAUAUGUC [U26C C79G], the self-cleavage is 0.59.
Regarding UAACAGGGGGCCACAGCAGAAGCGUCCACGUCGCAGCCCCUGUCAGAUUCUGGUGAAUCUGCGAAUUCUGCUGUAUAUUUC [U26C C79U], the self-cleavage stood at 0.55.
Turning to UAACAGGGGGCCACAGCAGAAGCGUCCACGUCGCAGCCCCUGUCAGAUUCUGGUGAAUCUGUGAAUUCUGCUGUAUAUCUC [U26C C62U], the self-cleavage came to 0.16.
Turning to UAACAGGGGGCCACAGCAGAAGCGUCCACGUCGCAGCCCCUUUCAGAUUCUGGUGAAUCUGCGAAUUCUGCUGUAUAUCUC [U26C G42U], the self-cleavage is 0.25.
In the case of UAACAGGGGGCCACAGCAGAAGCGUCCACGUCGCAGCCCCUCUCAGAUUCUGGUGAAUCUGCGAAUUCUGCUGUAUAUCUC [U26C G42C] it was 0.15.
In the case of UAACAGGGGGCCACAGCAGAAGCGUCCACGUCGCAGCCCCUAUCAGAUUCUGGUGAAUCUGCGAAUUCUGCUGUAUAUCUC [U26C G42A] it was 0.31; in that of UAACAGGGGGCCACAGCAGAAGCGUCCACGUCGCAGCCCCUGUCAGAUUCUGGUGAAUCUGCUAAUUCUGCUGUAUAUCUC [U26C G63U], 0.61.
Take UAACAGGGGGCCACAGCAGAAGCGUCCACGUCGCAGCCCCUGUCAGAUUCUGGUGAAUCUGCCAAUUCUGCUGUAUAUCUC [U26C G63C]: the self-cleavage amounted to 0.41.
Then UAACAGGGGGCCACAGCAGAAGCGUCCACGUCGCAGCCCCUGUCAGAUUCUGGUGAAUCUGCAAAUUCUGCUGUAUAUCUC [U26C G63A], with 0.35.
In the case of UAACAGGGGGCCACAGCAGAAGCGUCCACGUCGCAGCCCCUGUCAGAUUCUAGUGAAUCUGCGAAUUCUGCUGUAUAUCUC [U26C G52A] it was 0.76; in that of UAACAGGGGGCCACAGCAGAAGCGUCCACGUCGCAGCCCCUGUCAGAUUCUCGUGAAUCUGCGAAUUCUGCUGUAUAUCUC [U26C G52C], 0.27.
With UAACAGGGGGCCACAGCAGAAGCGUCCACGUCGCAGCCCCUGUCAGAAUCUGGUGAAUCUGCGAAUUCUGCUGUAUAUCUC [U26C U48A], the self-cleavage is 0.23.
UAACAGGGGGCCACAGCAGAAGCGUCCACGUCGCAGCCCCUGUCAGAGUCUGGUGAAUCUGCGAAUUCUGCUGUAUAUCUC [U26C U48G]: the self-cleavage turned out to be 0.47.
In the case of UAACAGGGGGCCACAGCAGAAGCGUCCACGUCGCAGCCCCUGUCAGACUCUGGUGAAUCUGCGAAUUCUGCUGUAUAUCUC [U26C U48C] it was 0.33; in that of UAACAGGGGGCCACAGCAGAAGCGUCCACGUCGCAGCCCCUGUCAGAUUCUGGUGAAUCUGCGAAUUUUGCUGUAUAUCUC [U26C C68U], 0.5; in that of UAACAGGGGGCCACAGCAGAAGCGUCCACGUCGCAGCCCCUGUCAGAUUCUGGUGAAUCUGCGAAUUAUGCUGUAUAUCUC [U26C C68A], 0.28.
Then UAACAGGGGGCCACAGCAGAAGCGUCCACGUCGCAGCCCCUGUCAGAUACUGGUGAAUCUGCGAAUUCUGCUGUAUAUCUC [U26C U49A], with 0.3; and UAACAGGGGGCCACAGCAGAAGCGUCCACGUCGCAGCCCCUGUCAGAUCCUGGUGAAUCUGCGAAUUCUGCUGUAUAUCUC [U26C U49C], with 0.34.
In the case of UAACAGGGGGCCACAGCAGAAGCGUCCACGUCCCAGCCCCUGUCAGAUUCUGGUGAAUCUGCGAAUUCUGCUGUAUAUCUC [U26C G33C] it was 0.13.
UAACAGGGGGCCACAGCAGAAGCGUCCACGUCACAGCCCCUGUCAGAUUCUGGUGAAUCUGCGAAUUCUGCUGUAUAUCUC [U26C G33A]: the self-cleavage came to 0.24.
Then UAACAGGGGGCCACAGCAGAAGCGUCCACGUCUCAGCCCCUGUCAGAUUCUGGUGAAUCUGCGAAUUCUGCUGUAUAUCUC [U26C G33U], with 0.24.
For UAACAGGGGGCCACAGCAGAAGCGUCCACGUCGCAGCCCCUGUCAAAUUCUGGUGAAUCUGCGAAUUCUGCUGUAUAUCUC [U26C G46A], the self-cleavage amounted to 0.17.
Turning to UAACAGGGGGCCACAGCAGAAGCGUCCACGUCGCAGCCCCUGUCAGAUUCUGGUGAAUCUGCGAAUUCUACUGUAUAUCUC [U26C G70A], the self-cleavage stood at 0.59.
In the case of UAACAGGGGGCCACAGCAGAAGCGUCCACGUCGCAGCCCCUGUCAGAUUCUGGUGAAUCUGCGAAUUCUCCUGUAUAUCUC [U26C G70C] it was 0.12.
Then UAACAGGGGGCCACAGCAGAAGCGUCCACGUCGCAGCCCCUGUCAGAUUCUGGUGAAUCUGCGAAUUCUUCUGUAUAUCUC [U26C G70U], with 0.26; and UAACAGGGGGCCACAGCAGAAGCGUCCACGUCGCAGCCCCAGUCAGAUUCUGGUGAAUCUGCGAAUUCUGCUGUAUAUCUC [U26C U41A], with 0.28; and UAACAGGGGGCCACAGCAGAAGCGUCCACGUCGCAGCCCCGGUCAGAUUCUGGUGAAUCUGCGAAUUCUGCUGUAUAUCUC [U26C U41G], with 0.31.
Then UAACAGGGGGCCACAGCAGAAGCGUCCACGUCGCAGCCCCCGUCAGAUUCUGGUGAAUCUGCGAAUUCUGCUGUAUAUCUC [U26C U41C], with 0.45; and UAACAGGGGGCCACAGCAGAAGCGUCCACGUCGCAUCCCCUGUCAGAUUCUGGUGAAUCUGCGAAUUCUGCUGUAUAUCUC [U26C G36U], with 0.25.
Take UAACAGGGGGCCACAGCAGAAGCGUCCACGUCGCACCCCCUGUCAGAUUCUGGUGAAUCUGCGAAUUCUGCUGUAUAUCUC [U26C G36C]: the self-cleavage was 0.15.
Take UAACAGGGGGCCACAGCAGAAGCGUCCACGUCGCAACCCCUGUCAGAUUCUGGUGAAUCUGCGAAUUCUGCUGUAUAUCUC [U26C G36A]: the self-cleavage is 0.13.
